To fix the notation:
B3: PSMGFR peptide (Primary Sequence of the MUC1 Growth Factor Receptor) (peptide)
peptide: GTINVHDVETQFNQYKTEAASRYNLTISDVSVSDVPFPFSAQSGA
notes: synthetic peptide immobilised on ELISA plates; also called MUC1* peptide; MUC1* extra cellular domain peptide
B7: N-10 peptide (PSMGFR minus 10 amino acids from the N-terminus) (peptide)
peptide: QFNQYKTEAASRYNLTISDVSVSDVPFPFSAQSGA
notes: also called N-10 PSMGFR; PSMGFR N-10

The target of experiment [1] is T1, N+9/C-9 peptide (9 amino acids added onto the N-terminus and 9 deleted from the C-terminus of PSMGFR).
T1 peptide: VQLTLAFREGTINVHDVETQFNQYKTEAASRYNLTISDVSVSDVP
The experiment is described as follows: ELISA (FIG. 63). How it is done: (§1) ELISA assays were performed to determine if, in addition to recognizing their immunizing peptide, they recognized PSMGFR, N−10 or C−10. In addition, they were tested for their ability to bind to N+20/C−27, N+9/C−9. We first did the ELISA assay on our set of reference antibodies, MNC2, MNE6, which we know are cancer-specific plus MNC3, which we know recognizes stem cells and progenitor cells (FIG. 63A-63B). None of the reference antibodies bound to the N+20/C−27 peptide. MNC2 and MNE6 cannot bind to PSMGFR peptides with 27, 10 or 9 C-terminal deletions, however, MNC3 binds to C−10 and to N+9/C−9 peptides.
A general note: In an ELISA, binding on a coated surface is turned into a signal by an enzyme label.

Experiment [2] has as its target T2, N+20/C-27 peptide (20 amino acids added onto the N-terminus and 27 deleted from the C-terminus of PSMGFR).
T2 peptide: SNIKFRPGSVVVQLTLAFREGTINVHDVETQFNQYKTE
The experiment is described as follows: ELISA (FIG. 63). Here is the method: as §1

Experiment [3] concerns the target B3. Put plainly: ELISA (FIG. 9).
Experiment [4] has as its target B7. The experiment is described as follows: Table 4 criterion 1, Binds N-10.
Experiment [5] deals with T3, C-10 peptide (PSMGFR minus 10 amino acids from the C-terminus).
T3 construct: also called C-10 PSMGFR; PSMGFR C-10
T3 peptide: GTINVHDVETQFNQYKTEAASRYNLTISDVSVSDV
The experiment is described as follows: ELISA (FIG. 2E). How it is done: (§2) FIGS. 2A-2I show results of ELISA assays. MUC1* peptides PSMGFR, PSMGFR minus 10 amino acids from the N-terminus aka N−10, or PSMGFR minus 10 amino acids from the C-terminus, aka C−10 are immobilized on the plate and the following are assayed for binding: NME7-AB (FIG. 2A), MN-C2 monoclonal antibody (FIG. 2B), MN-E6 monoclonal antibody (FIG. 2C), or dimeric NME1 (FIG. 2D). […] MUC1* peptides PSMGFR minus 10 amino acids from the N-terminus aka N−10, or PSMGFR minus 10 amino acids from the C-terminus, aka C−10, are immobilized on the plate and the following are assayed for binding: MN-C3 (FIG. 2E) and MN-C8 (FIG. 2F).

The target of the next experiment is T4, N-19/C-5 peptide.
T4 peptide: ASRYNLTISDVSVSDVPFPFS
The experiment is described as follows: ELISA (FIG. 69). How it is done: (§3) In order to further refine the epitopes to which each antibody binds, a series of smaller peptides derived from the PSMGFR sequence were synthesized: N−30 (SEQ ID NO:7), N−26 (SEQ ID NO:6), N−19 (SEQ ID NO:4), N−10/C−5 (SEQ ID NO:8), N−19/C−5 (SEQ ID NO:9). Each of the antibodies was tested in an ELISA assay for their ability to bind to this refined set of peptides, plus PSMGFR, N−10 and C−10 peptides (FIG. 67-69).

In the next experiment the target is T5, N-30 peptide.
T5 peptide: SVSDVPFPFSAQSGA
Put plainly: ELISA (FIG. 69). How it is done: as §3

In another experiment the target is T6, N-19 peptide.
T6 peptide: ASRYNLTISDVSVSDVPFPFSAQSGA
Put plainly: ELISA (FIG. 69). How it is done: as §3

The target in a further experiment is T7, N-10/C-5 peptide.
T7 peptide: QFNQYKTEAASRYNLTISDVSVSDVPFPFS
Put plainly: ELISA (FIG. 69). Here is the method: as §3

The target of another experiment is T8, N-26 peptide.
T8 peptide: ISDVSVSDVPFPFSAQSGA
The experiment is described as follows: ELISA (FIG. 69). Here is the method:
as §3

In experiment [6] the target is B7. The experiment is described as follows: ELISA (FIG. 69). Here is the method:
as §3

Experiment [7] has as its target T9, NME7-AB (recombinant) (Homo sapiens (Human), UniProt Q9Y5B8 92-376).
T9 construct: the entry ends in a His tag; also called NM23-H7
T9 sequence: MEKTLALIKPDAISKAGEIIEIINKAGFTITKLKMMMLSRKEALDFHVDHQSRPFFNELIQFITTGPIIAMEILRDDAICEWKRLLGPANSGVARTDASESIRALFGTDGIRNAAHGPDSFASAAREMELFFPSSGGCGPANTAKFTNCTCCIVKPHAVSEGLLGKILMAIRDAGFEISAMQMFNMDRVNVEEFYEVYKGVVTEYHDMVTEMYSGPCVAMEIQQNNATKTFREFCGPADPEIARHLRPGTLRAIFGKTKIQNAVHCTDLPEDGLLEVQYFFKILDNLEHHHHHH
Put plainly: ELISA (FIG. 2A). Here is the method: as §2

Experiment [8] concerns the target T3, C-10 peptide (PSMGFR minus 10 amino …). Put plainly: ELISA.
In experiment [9] the target is B7. Put plainly: ELISA.
In experiment [10] the target is B3. The experiment is described as follows: ELISA.
Experiment [11] deals with T1, N+9/C-9 peptide (9 amino acids added …). The experiment is described as follows: ELISA (FIG. 64A).
Experiment [12] concerns the target T2, N+20/C-27 peptide (20 amino acids added …). The experiment is described as follows: ELISA (FIG. 64A).
Experiment [13] has as its target T3, C-10 peptide (PSMGFR minus 10 amino …). The experiment is described as follows: ELISA (FIG. 64A).
The target of experiment [14] is B3. Put plainly: ELISA (FIG. 2B).
The target in experiment [15] is B7. The experiment is described as follows: ELISA (FIG. 2B-2C).
Experiment [16] deals with T9, NME7-AB (recombinant). The experiment is described as follows: ELISA (FIG. 2A-2D). How it is done:
as §2

B1: MN-C3 mouse monoclonal anti-MUC1* antibody (antibody, V domains shown)
VH: QVQLQQSGPELVRPGVSVKISCKGSGYRFTDYAMNWVKQSHAKSLEWIGVISTFSGNTNFNQKFKGKATMTVDKSSSTAYMELARLTSEDSAMYYCARSDYYGPYFDYWGQGTTLTVSS
VL: DVLMTQTPLSLPVSLGDQASISCRSSQTIVHSNGNTYLEWYLQKPGQSPKLLIYKVSNRFSGVPDRFSGSGSGTDFTLKINRVEAEDLGVYYCFQGSHVPFTFGSGTKLEIK
notes: mouse monoclonal raised against PSMGFR; also called Min-C3
As to B1, the binding result in experiment [1] was “binds”; in [2], “no binding”; in experiment [3] it was “binds”; in experiment [4], “binds”; in [5], “binds”.

B2: 17H6 mouse monoclonal antibody (antibody, V domains shown)
VH: EVKLVESGGGLVQPGGSLRLSCATSGFTFTDYYMSWVRQPPRKALEWLGFIRNKANGYTAEYSASVKGRFTISRDVSQNLLYLQMNILRAEDSATYYCAKDYYGSNPAWFAYWGQGTLVTVSA
VL: DILMTQTPLSLPVSLGDQASISCRSSQSIVHSSGNTFLEWYLQKPGQSPKLLIYKVSNRFSGVPDRFSGSGSGIDFTLKISRVEAEDLGVYYCFQGSHVPFTFGSGTKLEIK
notes: raised against N+9/C-9; also called N+9/C-9 antibody 17H6
With B2, the binding result (with N-19/C-5 peptide; with N-30 peptide; with N-19 peptide; with N-10/C-5 peptide; with N-26 peptide; in experiment [6]) was “no binding” each time.
As for B3, the binding result with NME7-AB (recombinant) [7] is listed as “binds”.

B4: 18B4 mouse monoclonal antibody (antibody, V domains shown)
VH: EVKLEESGGGLVQPGGSMKLSCAASGFTFNDAWMDWVRQSPEKGLEWVAEIRSTANIHTTYYAESVQGRFTISRDDSKSSVYLQMNSLRAEDTGIYYCTPLLYGFAYWGQGTLVTVSA
VL: DVVMTQSPLSLPVSLGDQASISCRTSQSLVHSNGNTYLHWHLQKPGQSPKVLIYKVSSRFSGVPDRFSGSGSGTDFTLKISRVEAEDLGVYFCSQNTHVPYTFGGGTKLEIK
notes: raised against PSMGFR; also called anti-PSMGFR antibody 18B4
B4: the binding result in experiment [8] is “binds”; in [9], “no binding”; in [10], “binds”; in experiment [11] it was “binds”; in experiment [12], “binds”.

B5: 20A10 mouse monoclonal antibody (antibody, V domains shown)
VH: EVMLVESGGGLVKPGGSLKLSCAASGFTFSTYAMSWIRQTPEKRLEWVASIGRAGSTYYSDSVKGRFTISRDNVRNILYLQMSSLRSEDTAMYYCARGPIYNDYDEFAYWGQGTLVTVSA
VL: NIMMTQSPSSLAVSAGEKVTMSCKSSQSVLYSSNQKNYLAWYQQKPGQSPKLLIYWASTRESGVPDRFTGSGSGTDFTLTISSVQAEDLAVYYCHQYLSSLTFGAGTKLELK
notes: raised against PSMGFR; also called MN-20A10; anti-PSMGFR antibody 20A10
Take B5: the binding result in [9] is “binds”; in [10] it was “binds”; in [11], “no binding”; in experiment [13] it was “no binding”.

B6: MN-C2 mouse monoclonal anti-MUC1* antibody (antibody, V domains shown)
VH: EVQLEESGGGLVKPGGSLKLSCAASGFTFSGYAMSWVRQTPEKRLEWVATISSGGTYIYYPDSVKGRFTISRDNAKNTLYLQMSSLRSEDTAMYYCARLGGDNYYEYFDVWGAGTTVTVSS
VL: DIVITQSTASLGVSLGQRATISCRASKSVSTSGYSYMHWYQQRPGQPPKLLIYLASNLESGVPARFSGSGSGTDFTLNIHPVEEEDAATYYCQHSRELPFTFGGGTKLEIKR
notes: mouse monoclonal raised against PSMGFR; also called Min-C2
For the molecule B6, the binding result in experiment [2] is “no binding”; in [14] it was “binds”; in experiment [11], “no binding”; in [13], “no binding”; in experiment [15] it was “binds”.
Take B7: in the experiment with NME7-AB (recombinant) [16], the binding result is on record as “binds”.

Values taken from patent publication US20220184120A1 (MINERVA BIOTECHNOLOGIES, published 2022).
